The term pKd denotes the Kd on a negative log10 scale, so that one unit is a factor of ten.

For experiment [1], the target named is HIV-1 capsid capsid (Human immunodeficiency virus 1) (UniProt O93182). The following applies: cited from earlier work.
The target in experiment [2] is full-length BicD2 (zz-TEV-Halo-hBicD2^FL-6×His) (human) (UniProt Q8TD16). The experiment can be described thus: TIRF microtubule recruitment assay; Nup358^min-zip labeled at 488 nm, full-length hBicD2, dynein and dynactin (1:1:2:2), 10 nM dynein; with all, or without dynein or BicD2; microtubules labeled with Alexa Fluor 647.
full-length BicD2 (zz-TEV-Halo-hBicD2^FL-6×His) (human), sequence (Q8TD16 whole entry): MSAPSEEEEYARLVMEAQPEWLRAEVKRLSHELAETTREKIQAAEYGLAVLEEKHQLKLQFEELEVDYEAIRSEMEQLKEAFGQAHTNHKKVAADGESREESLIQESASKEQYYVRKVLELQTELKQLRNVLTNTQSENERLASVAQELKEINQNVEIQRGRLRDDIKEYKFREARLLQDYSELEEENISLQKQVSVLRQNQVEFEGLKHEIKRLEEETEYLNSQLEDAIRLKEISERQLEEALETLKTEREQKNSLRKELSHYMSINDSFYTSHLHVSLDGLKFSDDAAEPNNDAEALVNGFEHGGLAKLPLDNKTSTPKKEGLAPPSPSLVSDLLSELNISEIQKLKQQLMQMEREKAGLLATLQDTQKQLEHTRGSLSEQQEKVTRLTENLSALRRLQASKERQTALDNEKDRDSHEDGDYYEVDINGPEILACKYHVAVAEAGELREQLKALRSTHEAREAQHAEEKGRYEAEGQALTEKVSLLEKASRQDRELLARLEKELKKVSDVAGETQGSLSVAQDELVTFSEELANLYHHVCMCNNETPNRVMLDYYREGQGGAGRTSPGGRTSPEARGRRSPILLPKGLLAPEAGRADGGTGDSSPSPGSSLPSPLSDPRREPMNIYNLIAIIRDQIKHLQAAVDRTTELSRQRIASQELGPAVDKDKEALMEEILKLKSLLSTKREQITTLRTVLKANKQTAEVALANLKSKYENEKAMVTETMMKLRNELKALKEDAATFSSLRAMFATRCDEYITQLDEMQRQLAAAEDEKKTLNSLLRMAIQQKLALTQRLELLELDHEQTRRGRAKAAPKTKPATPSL
For experiment [3], the target named is recombinant human cytoplasmic dynein (full-length dynein complex) (human) (UniProt Q14204). The experiment in a line: TIRF microtubule recruitment assay.
Experiment [4] shares this target. The experiment can be described thus: single-molecule TIRF colocalization.
Experiment [5] concerns the target purified HIV-1 cores labelled with GFP-Vpr (HIV-1) (UniProt P12520). The experiment can be described thus: TIRF fluorescence intensity against a standard curve.

pKd: −log10 of the molar value.

purified HIV-1 cores labelled with GFP-Vpr, sequence (P12520 whole entry, looked up): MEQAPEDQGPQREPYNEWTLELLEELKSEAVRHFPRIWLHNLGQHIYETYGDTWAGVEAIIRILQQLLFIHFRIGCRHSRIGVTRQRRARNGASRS
CypA, sequence (P62937 2-165): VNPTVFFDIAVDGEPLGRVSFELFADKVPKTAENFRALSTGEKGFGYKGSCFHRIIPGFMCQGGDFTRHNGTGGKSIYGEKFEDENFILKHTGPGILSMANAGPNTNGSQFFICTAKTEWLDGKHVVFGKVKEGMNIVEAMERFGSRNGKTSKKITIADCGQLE
HIV-1 capsid capsid (Human immunodeficiency virus 1), sequence (O93182 133-363): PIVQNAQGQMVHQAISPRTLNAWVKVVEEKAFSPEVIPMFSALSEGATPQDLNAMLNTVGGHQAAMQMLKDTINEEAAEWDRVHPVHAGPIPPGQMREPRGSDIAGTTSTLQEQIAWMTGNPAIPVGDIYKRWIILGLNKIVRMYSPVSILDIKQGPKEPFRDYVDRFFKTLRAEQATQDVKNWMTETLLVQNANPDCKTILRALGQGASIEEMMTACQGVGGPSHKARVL
purified HIV-1 cores labelled with GFP-Vpr (HIV-1), sequence (P12520 whole entry, looked up): as the sequence (P12520 whole entry, looked up) above

Consider CypA (from UniProt P62937), for which the pKd in experiment [1] is below 4.89.

As for “Nup358^min-zip [hNup358(2148 to 2240)-GCN4-SnapTag] (from UniProt P49792 2148-2240)”, the fold loss of microtubule recruitment when BicD2 is left out in experiment [2] was 15 fold.

Regarding “purified HIV-1 cores labelled with GFP-Vpr (from UniProt P12520 1-96) (complex)”, in experiment [3], the fold increase of cores on microtubules (with dynein, dynactin and BicD2^FL) amounted to 3.4 fold. Moreover, the percent of microtubule-bound cores colocalized with dynein in experiment [4] is 75.6%.

Turning to “recombinant human cytoplasmic dynein (full-length dynein complex) (from UniProt Q14204 1-4646; Q13409 1-638; O43237 1-492; P63172 1-113; P63167 1-89; Q9NP97 1-96)”, the stoichiometry N (dynein dimers per HIV-1 core) in experiment [5] turned out to be 11.6.

The values above are taken from paper PMC12175901.
